Assays:
HeLa Kyoto [1] = assay: solubility in G1/S (NP-40 vs SDS abundance) (log2 ratio); higher = more soluble; conditions: cell cycle stage: G1/S
HeLa Kyoto [2] = assay: thermal stability score vs G1/S (z-score of summed log2 fold changes over temperatures); higher = more thermally stable than in G1/S
HeLa Kyoto [3] = assay: solubility change mitosis vs G1/S (difference of NP-40 vs SDS log2 ratios) (log2 ratio difference); higher = more soluble in mitosis
HeLa Kyoto [4] = assay: melting temperature (median over replicates), in situ; higher = more thermally stable
[5] = cell cycle stage: early G1 (4.5 h after nocodazole release)
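Throughout, for melting temperature (median over replicates), in situ: HeLa Kyoto cells synchronized by double thymidine or nocodazole block, proteins quantified by TMT10plex mass spectrometry, three independent biological replicates.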
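Throughout, for solubility change mitosis vs G1/S (difference of NP-40 vs SDS log2 ratios): synchronized HeLa Kyoto cells (double thymidine block for G1/S, nocodazole release for mitosis), protein amounts in NP-40 versus SDS lysates quantified by mass spectrometry, three biological replicates.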
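Throughout, for solubility in G1/S (NP-40 vs SDS abundance): HeLa Kyoto cells arrested at G1/S by double thymidine block, proteins quantified by TMT10plex mass spectrometry in mild NP-40 versus SDS extracts, three biological replicates.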
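Throughout, for thermal stability score vs G1/S (z-score of summed log2 fold changes over temperatures): synchronized HeLa Kyoto cells, proteins quantified by TMT10plex mass spectrometry, three biological replicates, mitosis taken 0.5 h after nocodazole release, G1/S directly after double thymidine block.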

Substance	solubility in G1/S (log2) (HeLa Kyoto [1])	thermal stability score (HeLa Kyoto [2]; [5])	thermal stability score (HeLa Kyoto [2]; cell cycle stage: mitosis)	solubility change mitosis (log2) (HeLa Kyoto [3])	melting temperature (HeLa Kyoto [4]; cell cycle stage: G1/S) [°C]	melting temperature (HeLa Kyoto [4]; cell cycle stage: mitosis) [°C]
MAAVSVYAPPVGGFSFDNCRRNAVLEADFAKRGYKLPKVRKTGTTIAGVVYKDGIVLGADTRATEGMVVADKNCSKIHFISPNIYCCGAGTAADTDMTTQLISSNLELHSLSTGRLPRVVTANRMLKQMLFRYQGYIGAALVLGGVDVTGPHLYSIYPHGSTDKLPYVTMGSGSLAAMAVFEDKFRPDMEEEEAKNLVSEAIAAGIFNDLGSGSNIDLCVISKNKLDFLRPYTVPNKKGTRLGRYRCEKGTTAVLTEKITPLEIEVLEETVQTMDTS [PSMB7]	0.376	-1.21	-2.39	-0.192	60.7	64.5
MEEVRCPEHGTFCFLKTGVRDGPNKGKSFYVCRADTCSFVRATDIPVSHCLLHEDFVVELQGLLLPQDKKEYRLFFRCIRSKAEGKRWCGSIPWQDPDSKEHSVSNKSQHASETFHHSSNWLRNPFKVLDKNQEPALWKQLIKGEGEEKKADKKQREKGDQLFDQKKEQKPEMMEKDLSSGLVPKKKQSVVQEKKQEEGAEIQCEAETGGTHKRDFSEIKSQQCQGNELTRPSASSQEKSSGKSQDVQRESEPLREKVTQLLPQNVHSHNSISKPQKGGPLNKEYTNWEAKETKAKDGPSIQATQKSLPQGHFQERPETHSVPAPGGPAAQAAPAAPGLSLGEGREAATSSDDEEEDDVVFVSSKPGSPLLFDSTLDLETKENLQFPDRSVQRKVSPASGVSKKVEPSDPVARRVYLTTQLKQKKSTLASVNIQALPDKGQKLIKQIQELEEVLSGLTLSPEQGTNEKSNSQVPQQSHFTKTTTGPPHLVPPQPLPRRGTQPVGSLELKSACQVTAGGSSQCYRGHTNQDHVHAVWKITSEAIGQLHRSLESCPGETVVAEDPAGLKVPLLLHQKQALAWLLWRESQKPQGGILADDMGLGKTLTMIALILTQKNQEKKEEKEKSTALTWLSKDDSCDFTSHGTLIICPASLIHHWKNEVEKRVNSNKLRVYLYHGPNRDSRARVLSTYDIVITTYSLVAKEIPTNKQEAEIPGANLNVEGTSTPLLRIAWARIILDEAHNVKNPRVQTSIAVCKLQACARWAVTGTPIQNNLLDMYSLLKFLRCSPFDEFNLWRSQVDNGSKKGGERLSILTKSLLLRRTKDQLDSTGRPLVILPQRKFQLHHLKLSEDEETVYNVFFARSRSALQSYLKRHESRGNQSGRSPNNPFSRVALEFGSEEPRHSEAADSPRSSTVHILSQLLRLRQCCCHLSLLKSALDPMELKGEGLVLSLEEQLSALTLSELRDSEPSSTVSLNGTFFKMELFEGMRESTKISSLLAELEAIQRNSASQKSVIVSQWTNMLKVVALHLKKHGLTYATIDGSVNPKQRMDLVEAFNHSRGPQVMLISLLAGGVGLNLTGGNHLFLLDMHWNPSLEDQACDRIYRVGQQKDVVIHRFVCEGTVEEKILQLQEKKKDLAKQVLSGSGESVTKLTLADLRVLFGI [TTF2]	-0.107	0.916	0.826	-0.0303	48.3	49.1
MTGSNSHITILTLKVLPHFESLGKQEKIPNKMSAFRNHCPHLDSVGEITKEDLIQKSLGTCQDCKVQGPNLWACLENRCSYVGCGESQVDHSTIHSQETKHYLTVNLTTLRVWCYACSKEVFLDRKLGTQPSLPHVRQPHQIQENSVQDFKIPSNTTLKTPLVAVFDDLDIEADEEDELRARGLTGLKNIGNTCYMNAALQALSNCPPLTQFFLDCGGLARTDKKPAICKSYLKLMTELWHKSRPGSVVPTTLFQGIKTVNPTFRGYSQQDAQEFLRCLMDLLHEELKEQVMEVEEDPQTITTEETMEEDKSQSDVDFQSCESCSNSDRAENENGSRCFSEDNNETTMLIQDDENNSEMSKDWQKEKMCNKINKVNSEGEFDKDRDSISETVDLNNQETVKVQIHSRASEYITDVHSNDLSTPQILPSNEGVNPRLSASPPKSGNLWPGLAPPHKKAQSASPKRKKQHKKYRSVISDIFDGTIISSVQCLTCDRVSVTLETFQDLSLPIPGKEDLAKLHSSSHPTSIVKAGSCGEAYAPQGWIAFFMEYVKRFVVSCVPSWFWGPVVTLQDCLAAFFARDELKGDNMYSCEKCKKLRNGVKFCKVQNFPEILCIHLKRFRHELMFSTKISTHVSFPLEGLDLQPFLAKDSPAQIVTYDLLSVICHHGTASSGHYIAYCRNNLNNLWYEFDDQSVTEVSESTVQNAEAYVLFYRKSSEEAQKERRRISNLLNIMEPSLLQFYISRQWLNKFKTFAEPGPISNNDFLCIHGGVPPRKAGYIEDLVLMLPQNIWDNLYSRYGGGPAVNHLYICHTCQIEAEKIEKRRKTELEIFIRLNRAFQKEDSPATFYCISMQWFREWESFVKGKDGDPPGPIDNTKIAVTKCGNVMLRQGADSGQISEETWNFLQSIYGGGPEVILRPPVVHVDPDILQAEEKIEVETRSL [USP33]	-0.427	1.09	2.47	-0.00182	51.5	51
FLAD1	0.272	-0.00796	-0.288	-0.111	51.8	51.6
MAAPSWRGARLVQSVLRVWQVGPHVARERVIPFSSLLGFQRRCVSCVAGSAFSGPRLASASRSNGQGSALDHFLGFSQPDSSVTPCVPAVSMNRDEQDVLLVHHPDMPENSRVLRVVLLGAPNAGKSTLSNQLLGRKVFPVSRKVHTTRCQALGVITEKETQVILLDTPGIISPGKQKRHHLELSLLEDPWKSMESADLVVVLVDVSDKWTRNQLSPQLLRCLTKYSQIPSVLVMNKVDCLKQKSVLLELTAALTEGVVNGKKLKMRQAFHSHPGTHCPSPAVKDPNTQSVGNPQRIGWPHFKEIFMLSALSQEDVKTLKQYLLTQAQPGPWEYHSAVLTSQTPEEICANIIREKLLEHLPQEVPYNVQQKTAVWEEGPGGELVIQQKLLVPKESYVKLLIGPKGHVISQIAQEAGHDLMDIFLCDVDIRLSVKLLK [ERAL1]	0.33	-1.87	-1.48	-0.061	51.2	50.9
PIK3C2B	-0.164	-0.0552	-0.413	-0.142	50.1	49.7
